The numbers were not newly measured in publication PMC7561547, which cites them from elsewhere.

In the data set the target is Her2 (Homo sapiens) (UniProt P04626).

Turning to trastuzumab, the Kd was 0.1 nM.

A word on the Kd: it is the free concentration of one partner at which half of the binding sites on the other are occupied at equilibrium, for simple one-to-one binding.
